Data set [1] addresses T1, chymase (recombinant, SIGMA) (UniProt P23946).
T1 sequence: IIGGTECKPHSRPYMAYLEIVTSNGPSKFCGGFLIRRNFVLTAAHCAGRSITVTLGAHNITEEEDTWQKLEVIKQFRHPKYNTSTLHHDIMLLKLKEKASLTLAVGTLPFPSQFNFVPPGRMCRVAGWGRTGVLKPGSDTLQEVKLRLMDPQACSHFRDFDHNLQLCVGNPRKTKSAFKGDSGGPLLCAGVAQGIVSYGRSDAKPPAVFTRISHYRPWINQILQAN
Briefly: inhibition. As to conditions: 2'-F pyrimidines (U, C); negative control pool, no inhibition.

For data set [2], the target named is T2, chymase (recombinant, SIGMA) (UniProt P23946 P23946:22-247).
T2 sequence: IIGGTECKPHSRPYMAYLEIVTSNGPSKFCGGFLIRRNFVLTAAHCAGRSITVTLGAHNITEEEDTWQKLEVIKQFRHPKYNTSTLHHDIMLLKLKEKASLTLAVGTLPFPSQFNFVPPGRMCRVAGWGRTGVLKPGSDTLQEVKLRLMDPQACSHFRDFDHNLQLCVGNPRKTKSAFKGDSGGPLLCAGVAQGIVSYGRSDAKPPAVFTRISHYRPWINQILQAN
In words: inhibition; Suc-AAPF-MCA substrate, 0.005 ug chymase, single measurement. As to conditions: tags: SIGMA recombinant. How it is done:
(§1) The assay was performed using a 96-well plate (F16 Black Maxisorp Fluoronunc, manufactured by Nunc), with a reaction mixture volume of 100 μL, in solution C as a buffer solution. Here, the solution C is a mixed solution of 145 mM sodium chloride, 5.4 mM potassium chloride, 1.8 mM calcium chloride, 0.8 mM magnesium chloride, 20 mM Tris (pH 7.6), and 0.05% Tween20. First, nucleic acid was serially diluted in solution C to obtain 50 μL solutions. After 10 μL of the 1 mM substrate prepared in solution C was added thereto, the plate was set to the microplate reader SpectraMax190 (manufactured by Molecular Devices Corporation), and incubated at 37° C. for 5 minutes. Separately, 0.05 μg of chymase (recombinant, manufactured by SIGMA) was diluted in solution C to obtain a 40 μL chymase solution, and incubated at 37° C. for 5 minutes. The chymase solution was added to the mixture of the nucleic acid and substrate to initiate an enzyme reaction. The final chymase concentration in the reaction mixture was 16.7 nM, the final substrate concentration being 100 μM. The plate containing the reaction mixture was set to the microplate reader SpectraMax190 (manufactured by Molecular Devices Corporation), and examined for time-dependent changes in the fluorescence intensity at 37° C. for 5 minutes (or 30 minutes) (excitation wavelength 380 nm, detection wavelength 460 nm). A linear approximation of the increase in the fluorescence of the AMC released from the substrate by chymase activity was generated, and its slope was taken as the initial velocity […]. For control, samples were treated and analyzed in the same manner in two cases: use of a 30N (a nucleotide of 30 consecutive bases represented by N; N is A, G, C or T) nucleic acid pool (negative control), and use of chymostatin, a known chymotrypsin-like serine protease inhibitor (positive control). Taking the initial reaction velocity without the nucleic acid and inhibitor (V₀) as a 100% enzyme activity, the inhibitory rate of each test substance was calculated using the following equation: […]
In the evaluation of SEQ ID NO: 21-25, a method similar to the evaluation method of inhibitory activity against chymase shown in Example 1 by using MCA as a substrate except that the amount chymase was changed from 0.05 μg to 0.005 μg was used for measurement.

In data set [3] the target is T3, chymase (native, human skin mast cell) (Homo sapiens, UniProt P23946 P23946:22-247).
T3 sequence: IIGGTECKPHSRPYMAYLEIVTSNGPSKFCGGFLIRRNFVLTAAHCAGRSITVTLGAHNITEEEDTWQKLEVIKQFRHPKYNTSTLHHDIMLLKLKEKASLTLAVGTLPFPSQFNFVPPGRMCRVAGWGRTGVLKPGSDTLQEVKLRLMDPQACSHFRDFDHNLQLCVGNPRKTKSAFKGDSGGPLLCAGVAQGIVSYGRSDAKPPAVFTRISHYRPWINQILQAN
Briefly: inhibition; angiotensin I substrate, 37 C. As to conditions: tags: Calbiochem Human Skin. Here is the method: Whether the nucleic acids shown by SEQ ID NO: 9 and 10 inhibit the enzyme activity of chymase was determined by the following method. Angiotensin I is converted by chymase to angiotensin II, during which a peptide fragment His-Leu is released. Since the peptide His-Leu is fluorescently derivatized by o-phthalaldehyde, its fluorescence intensity can be quantitatively measured.
(§2) The total volume of solution for an enzyme reaction in the assay was set to 50 μL, and the reaction was performed in solution C buffer. At first, native (manufactured by Calbiochem) was diluted with solution C to give 5 μL thereof. Here, the native is chymase purified from human skin mast cell. […] The whole mixture was centrifuged at 4° C., 14000 rpm for 10 min, and the supernatant (30 μL) was used for the next fluorescence induction reaction.
The above-mentioned supernatant (30 μL) was added to a 96 well plate (black, manufactured by Costar), a solution (15 μL) of 2% o-phthalaldehyde (manufactured by SIGMA) in methanol and 0.3M NaOH solution (170 μL) were added to each well, and the mixture was incubated at room temperature for 10 min. […] The plate was set on a microplate reader SpectraMax190 (manufactured by Molecular device) and the fluorescence intensity was measured at an excitation wavelength of 355 nm and a fluorescence wavelength of 460 nm.

The target in data set [4] is T3, chymase (native, human skin mast cell). In words: inhibition; angiotensin I substrate; second G of GGGG 2'-OMe. As to conditions: tags: Calbiochem Human Skin. Here is the method: as §2, with “cell. The nucleic acid was serially diluted with solution C at a concentration of 0.0027-2 μM to give 25 μL thereof. The chymase solution (5 μL) and the nucleic acid solution (25 μL) were mixed, and the mixture was incubated at 37° C. for 5 min. On the other hand, […] angiotensin I (manufactured by PEPTIDE […], INC.) was prepared in solution C to give 20 μL thereof, which was incubated at 37° C. for 5 min.” for “cell.”
The above-mentioned supernatant (30 μL) was added to a 96 well plate (black, manufactured by Costar), a solution (15 μL) of 2% o-phthalaldehyde (manufactured by SIGMA) in methanol and 0.3M NaOH solution (170 μL) were added to each well, and the mixture was incubated at room temperature for 10 min. […] The plate was set on a microplate reader SpectraMax190 (manufactured by Molecular device) and the fluorescence intensity was measured at an excitation wavelength of 355 nm and a fluorescence wavelength of 460 nm. […]

Data set [5] has as its target T2, chymase (recombinant, SIGMA). In words: inhibition; Suc-AAPF-MCA substrate, 37 C. As to conditions: tags: SIGMA recombinant. Here is the method: as §1, with “By detecting the fluorescence of this AMC, the enzyme activity of chymase can be determined. The assay” for “The assay”

The record followed here is patent publication US20210002644, “ANTI-CHYMASE APTAMER AND USE FOR SAME” (RIBOMIC INC., published 2021).

For the molecule “UCACACUAGCACGCAUAGGNNNNNNNNNNNNNNNNNNNNNNNNNNNNNNCAUCUGACCUCUCUCCUGCUCCC [30N nucleic acid pool]”, the 50% inhibitory concentration (IC50) (usually the concentration at which inhibition is half-maximal) in data set [1] is over 500 nM.
For the molecule GGCAGAUGAUCGGACAUAACAUAGAUAGAGUUAAAAUGGGGUGUCAA (ssRNA, 2'-F pyrimidines (inferred)) [SEQ ID NO: 24], in data set [2], the IC50 is 3.7 nM.

B1: SEQ ID NO: 10 (ssRNA)
RNA: GGGAACGAAGCGACAGACCGAAUCAGAAGUUCAACAUGGACAUAACAUCGAUGGGGUGUCAAGUACUGACGACAGA
modifications: 2'-F pyrimidines (U, C); purines 2'-OH
For the molecule B1, it took 0.43 nM to reach half-maximal inhibition in data set [3] (IC50).

B2: SEQ ID NO: 22 (ssRNA)
RNA: GGCAGAUGAUCGGACAUAACAGUUAGAUAGAGUUAAAAACUGGGGUGUCAA
modifications: 2'-F pyrimidines (inferred)
Turning to B2, the IC50 in data set [2] turned out to be 5 nM.
On the same count and under the same terms, in the case of GGCAGAUGAUCGGACAUAACAGUAGAUAGAGUUAAAACUGGGGUGUCAA (ssRNA, 2'-F pyrimidines (inferred)) [SEQ ID NO: 23] it was 7.8 nM.

B3: SEQ ID NO: 17(1) (ssRNA)
RNA: GAUGAUCGGACAUAACAUUGUUGGGGUGUCAA
modifications: GAU(F)GAU(F)C(F)GGAC(F)AU(F)AAC(F)AU(F)U(F)GU(F)U(F)G(M)G(M)GGU(F)GU(F)C(F)AA (F=2'-F, M=2'-OMe)
In turn, B3 yielded an IC50 in data set [4] of 44.4 nM.

B4: SEQ ID NO: 17(3) (ssRNA)
RNA: GAUGAUCGGACAUAACAUUGUUGGGGUGUCAA
modifications: idT-G(M)A(M)U(F)G(M)A(M)U(F)C(F)G(M)G(M)A(M)C(F)A(M)U(F)AAC(F)AU(F)U(F)G(M)U(F)U(F)GG(M)G(M)G(M)U(F)G(M)U(F)C(F)A(M)A(M)-idT (F=2'-F, M=2'-OMe)
As to B4, the IC50 in data set [4] stood at 5.66 nM.

B5: SEQ ID NO: 4 (ssRNA)
RNA: GGGAGCAGGAGAGAGGUCAGAUGUAACUCUAUUGAGGGGCAUCAGCACAGUAGCCUAUGCGUGCUAGUGUGA
modifications: 2'-F pyrimidines (U, C); purines 2'-OH
With B5, the IC50 in data set [5] was 10.8 nM.
Turning to GGCAGAUGAUCGGACAUAACAAGAUAGAGUUAAAUGGGGUGUCAA (ssRNA, 2'-F pyrimidines (inferred)) [SEQ ID NO: 25], the IC50 in data set [2] turned out to be 5.8 nM.
